Publication PMC9670026

Legend:
Protein A [1] = biological target: Protein A (UniProt P38507); test: LSPR (localized surface plasmon resonance) biosensor; Protein A immobilised by EDC/NHS on the gold-nanostructure sensor chip; IgG 0.45 mg/mL in running buffer, 1 mL injected at 1 mL/min, one injection (n = 1); running buffer PBS pH 7.4; room temperature; Langmuir 1:1 fit; apparent affinity
Protein A [2] = biological target: Protein A (UniProt P38507); test: LSPR (localized surface plasmon resonance) biosensor; Protein A immobilised by EDC/NHS on the gold-nanostructure sensor chip; IgG 0.45 mg/mL in running buffer, 1 mL injected at 1 mL/min, one injection (n = 1); running buffer 10 mM citrate, 150 mM NaCl, pH 4.0; room temperature; Langmuir 1:1 fit; apparent affinity
Protein A [3] = biological target: Protein A (UniProt P38507); test: LSPR (localized surface plasmon resonance) biosensor; Protein A immobilised by EDC/NHS on the gold-nanostructure sensor chip; IgG 0.45 mg/mL in running buffer, 1 mL injected at 1 mL/min, one injection (n = 1); running buffer 10 mM citrate, 150 mM NaCl, pH 3.8; room temperature; Langmuir 1:1 fit; apparent affinity
Protein A [4] = biological target: Protein A (UniProt P38507); test: LSPR (localized surface plasmon resonance) biosensor; Protein A immobilised by EDC/NHS on the gold-nanostructure sensor chip; IgG 0.45 mg/mL in running buffer, 1 mL injected at 1 mL/min, one injection (n = 1); running buffer 10 mM citrate, 150 mM NaCl, pH 3.5; room temperature; Langmuir 1:1 fit; apparent affinity
[5] = biological target: Human IgG1, monomer fraction (human); test: SEC-MALS; SEC-MALS-RI-UV on Superdex 200 Increase 10/300 GL, 1 mL/min, 100 uL injected, room temperature; 0.45 mg/mL total IgG; aggregate fraction of the IgG1 batch
[6] = biological target: Human IgG1 monoclonal antibody, monomer fraction (UniProt P01857); test: LSPR (localized surface plasmon resonance) fiber-optical nanoplasmonic biosensor, ArgusEye AB; conditions: room temperature under ambient conditions, pH 7.4: 140 mM sodium chloride, 2.7 mM potassium chloride, 10 mM phosphate, pH 4.0, 3.8 and 3.5: 150 mM NaCl with 10 mM citrate, pH 7.4: PBS (10 mM phosphate), pH 4.0, 3.8 and 3.5: 10 mM citrate (Methods and Results text). The Figure 3 caption state
[7] = biological target: Human IgG1 monoclonal antibody, aggregate fraction (mainly dimers) (UniProt P01857); test: as above; conditions: room temperature under ambient conditions, pH 7.4: 140 mM sodium chloride, 2.7 mM potassium chloride, 10 mM phosphate, pH 4.0, 3.8 and 3.5: 150 mM NaCl with 10 mM citrate, pH 7.4: PBS (10 mM phosphate), pH 4.0, 3.8 and 3.5: 10 mM citrate (Methods and Results text). The Figure 3 caption state

**Q.** For “Human IgG1, aggregate fraction (antibody)”, which Kd (Protein A [1]) is on record?
**A.** 1.2 nM

**Q.** What about the koff (Protein A [1]) of the same substance?
**A.** 2.9e-05 s⁻¹

**Q.** What about the kon (Protein A [1]) of the same substance?
**A.** 25000 M⁻¹ s⁻¹

**Q.** What about the Kd (Protein A [2]) of the same substance?
**A.** 26 nM

**Q.** What about the koff (Protein A [2]) of the same substance?
**A.** 0.00092 s⁻¹

**Q.** What about the kon (Protein A [2]) of the same substance?
**A.** 36000 M⁻¹ s⁻¹

**Q.** And the Kd (Protein A [3])?
**A.** 65 nM

**Q.** And the koff (Protein A [3])?
**A.** 0.0024 s⁻¹

**Q.** And the kon (Protein A [3])?
**A.** 36000 M⁻¹ s⁻¹

**Q.** What about the Kd (Protein A [4]) of the same substance?
**A.** 350 nM

**Q.** And the koff (Protein A [4])?
**A.** 0.0099 s⁻¹

**Q.** What about the kon (Protein A [4]) of the same substance?
**A.** 28000 M⁻¹ s⁻¹

**Q.** Which Kd (Protein A [1]) does the source give for Human IgG1, monomer fraction (antibody) here?
**A.** 1.3 nM

**Q.** What about the koff (Protein A [1]) of the same substance?
**A.** 2.9e-05 s⁻¹

**Q.** And the kon (Protein A [1])?
**A.** 22000 M⁻¹ s⁻¹

**Q.** And the Kd (Protein A [2])?
**A.** 130 nM

**Q.** What about the koff (Protein A [2]) of the same substance?
**A.** 0.004 s⁻¹

**Q.** What about the kon (Protein A [2]) of the same substance?
**A.** 31000 M⁻¹ s⁻¹

**Q.** What about the stoichiometry N [5] of the same substance?
**A.** 2

**Q.** And the Kd (Protein A [3])?
**A.** 330 nM

**Q.** And the koff (Protein A [3])?
**A.** 0.01 s⁻¹

**Q.** What about the kon (Protein A [3]) of the same substance?
**A.** 30000 M⁻¹ s⁻¹

**Q.** And the Kd (Protein A [4])?
**A.** 660 nM

**Q.** And the koff (Protein A [4])?
**A.** 0.011 s⁻¹

**Q.** And the kon (Protein A [4])?
**A.** 17000 M⁻¹ s⁻¹

**Q.** “Protein A (staphylococcal protein A, SpA)” was tested. Which koff ([6]; pH 3.5) did it give?
**A.** 0.011 s⁻¹

**Q.** What about the kon ([6]; pH 3.5) of the same substance?
**A.** 17000 M⁻¹ s⁻¹

**Q.** What about the koff ([6]; pH 3.8) of the same substance?
**A.** 0.01 s⁻¹

**Q.** And the kon ([6]; pH 3.8)?
**A.** 30000 M⁻¹ s⁻¹

**Q.** What about the koff ([6]; pH 4.0) of the same substance?
**A.** 0.004 s⁻¹

**Q.** And the kon ([6]; pH 4.0)?
**A.** 31000 M⁻¹ s⁻¹

**Q.** What about the koff ([6]; pH 7.4) of the same substance?
**A.** 2.9e-05 s⁻¹

**Q.** What about the kon ([6]; pH 7.4) of the same substance?
**A.** 22000 M⁻¹ s⁻¹

**Q.** And the koff ([7]; pH 3.5)?
**A.** 0.0099 s⁻¹

**Q.** What about the kon ([7]; pH 3.5) of the same substance?
**A.** 28000 M⁻¹ s⁻¹

**Q.** And the koff ([7]; pH 3.8)?
**A.** 0.0024 s⁻¹

**Q.** And the kon ([7]; pH 3.8)?
**A.** 36000 M⁻¹ s⁻¹

**Q.** What about the koff ([7]; pH 4.0) of the same substance?
**A.** 0.00092 s⁻¹

**Q.** And the kon ([7]; pH 4.0)?
**A.** 36000 M⁻¹ s⁻¹

**Q.** What about the koff ([7]; pH 7.4) of the same substance?
**A.** 2.9e-05 s⁻¹

**Q.** And the kon ([7]; pH 7.4)?
**A.** 25000 M⁻¹ s⁻¹
